From IntAct's records for PubMed 31515488

B1: GTP-binding protein GEM (Homo sapiens), P55040 (parent)
chain: MTLNNVTMRQGTVGMQPQQQRWSIPADGRHLMVQKEPHQYSHRNRHSATPEDHCRRSWSSDSTDSVISSESGNTYYRVVLIGEQGVGKSTLANIFAGVHDSMDSDCEVLGEDTYERTLMVDGESATIILLDMWENKGENEWLHDHCMQVGDAYLIVYSITDRASFEKASELRIQLRRARQTEDIPIILVGNKSDLVRCREVSVSEGRACAVVFDCKFIETSAAVQHNVKELFEGIVRQVRLRRDSKEKNERRLAYQKRKESMPRKARRFWGKIVAKNNKNMAFKLKSKSCHDLSVL
B2: Melanoma-associated antigen 4 (Homo sapiens), P43358 (parent)
chain: MSSEQKSQHCKPEEGVEAQEEALGLVGAQAPTTEEQEAAVSSSSPLVPGTLEEVPAAESAGPPQSPQGASALPTTISFTCWRQPNEGSSSQEEEGPSTSPDAESLFREALSNKVDELAHFLLRKYRAKELVTKAEMLERVIKNYKRCFPVIFGKASESLKMIFGIDVKEVDPASNTYTLVTCLGLSYDGLLGNNQIFPKTGLLIIVLGTIAMEGDSASEEEIWEELGVMGVYDGREHTVYGEPRKLLTQDWVQENYLEYRQVPGSNPARYEFLWGPRALAETSYVKVLEHVVRVNARVRIAYPSLREAALLEEEEGV
partner: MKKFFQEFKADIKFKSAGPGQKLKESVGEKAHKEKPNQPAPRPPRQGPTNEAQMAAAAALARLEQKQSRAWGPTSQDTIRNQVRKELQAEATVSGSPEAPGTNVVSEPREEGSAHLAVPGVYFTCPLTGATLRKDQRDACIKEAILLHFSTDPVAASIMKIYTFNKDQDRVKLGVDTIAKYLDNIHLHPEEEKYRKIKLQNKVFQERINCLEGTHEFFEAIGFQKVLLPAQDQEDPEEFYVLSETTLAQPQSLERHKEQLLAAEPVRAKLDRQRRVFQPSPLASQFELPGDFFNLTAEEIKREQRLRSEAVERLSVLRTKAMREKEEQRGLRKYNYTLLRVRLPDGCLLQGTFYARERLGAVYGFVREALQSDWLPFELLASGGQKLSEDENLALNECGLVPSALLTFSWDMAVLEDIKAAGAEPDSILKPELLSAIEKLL
B3: Prolyl 4-hydroxylase subunit alpha-3 (Homo sapiens), Q7Z4N8 (parent)
chain: MGPGARLAALLAVLALGTGDPERAAARGDTFSALTSVARALAPERRLLGLLRRYLRGEEARLRDLTRFYDKVLSLHEDSTTPVANPLLAFTLIKRLQSDWRNVVHSLEASENIRALKDGYEKVEQDLPAFEDLEGAARALMRLQDVYMLNVKGLARGVFQRVTGSAITDLYSPKRLFSLTGDDCFQVGKVAYDMGDYYHAIPWLEEAVSLFRGSYGEWKTEDEASLEDALDHLAFAYFRAGNVSCALSLSREFLLYSPDNKRMARNVLKYERLLAESPNHVVAEAVIQRPNIPHLQTRDTYEGLCQTLGSQPTLYQIPSLYCSYETNSNAYLLLQPIRKEVIHLEPYIALYHDFVSDSEAQKIRELAEPWLQRSVVASGEKQLQVEYRISKSAWLKDTVDPKLVTLNHRIAALTGLDVRPPYAEYLQVVNYGIGGHYEPHFDHATSPSSPLYRMKSGNRVATFMIYLSSVEAGGATAFIYANLSVPVVRNAALFWWNLHRSGEGDSDTLHAGCPVLVGDKWVANKWIHEYGQEFRRPCSSSPED
B4: Angiomotin (Homo sapiens), Q4VCS5 (parent)
chain: MRNSEEQPSGGTTVLQRLLQEQLRYGNPSENRSLLAIHQQATGNGPPFPSGSGNPGPQSDVLSPQDHHQQLVAHAARQEPQGQEIQSENLIMEKQLSPRMQNNEELPTYEEAKVQSQYFRGQQHASVGAAFYVTGVTNQKMRTEGRPSVQRLNPGKMHQDEGLRDLKQGHVRSLSERLMQMSLATSGVKAHPPVTSAPLSPPQPNDLYKNPTSSSEFYKAQGPLPNQHSLKGMEHRGPPPEYPFKGMPPQSVVCKPQEPGHFYSEHRLNQPGRTEGQLMRYQHPPEYGAARPAQDISLPLSARNSQPHSPTSSLTSGGSLPLLQSPPSTRLSPARHPLVPNQGDHSAHLPRPQQHFLPNQAHQGDHYRLSQPGLSQQQQQQQQQHHHHHHHQQQQQQQPQQQPGEAYSAMPRAQPSSASYQPVPADPFAIVSRAQQMVEILSDENRNLRQELEGCYEKVARLQKVETEIQRVSEAYENLVKSSSKREALEKAMRNKLEGEIRRMHDFNRDLRERLETANKQLAEKEYEGSEDTRKTISQLFAKNKESQREKEKLEAELATARSTNEDQRRHIEIRDQALSNAQAKVVKLEEELKKKQVYVDKVEKMQQALVQLQAACEKREQLEHRLRTRLERELESLRIQQRQGNCQPTNVSEYNAAALMELLREKEERILALEADMTKWEQKYLEENVMRHFALDAAATVAAQRDTTVISHSPNTSYDTALEARIQKEEEEILMANKRCLDMEGRIKTLHAQIIEKDAMIKVLQQRSRKEPSKTEQLSCMRPAKSLMSISNAGSGLLSHSSTLTGSPIMEEKRDDKSWKGSLGILLGGDYRAEYVPSTPSPVPPSTPLLSAHSKTGSRDCSTQTERGTESNKTAAVAPISVPAPVAAAATAAAITATAATITTTMVAAAPVAVAAAAAPAAAAAPSPATAAATAAAVSPAAAGQIPAAASVASAAAVAPSAAAAAAVQVAPAAPAPVPAPALVPVPAPAAAQASAPAQTQAPTSAPAVAPTPAPTPTPAVAQAEVPASPATGPGPHRLSIPSLTCNPDKTDGPVFHSNTLERKTPIQILGQEPDAEMVEYLI
partner: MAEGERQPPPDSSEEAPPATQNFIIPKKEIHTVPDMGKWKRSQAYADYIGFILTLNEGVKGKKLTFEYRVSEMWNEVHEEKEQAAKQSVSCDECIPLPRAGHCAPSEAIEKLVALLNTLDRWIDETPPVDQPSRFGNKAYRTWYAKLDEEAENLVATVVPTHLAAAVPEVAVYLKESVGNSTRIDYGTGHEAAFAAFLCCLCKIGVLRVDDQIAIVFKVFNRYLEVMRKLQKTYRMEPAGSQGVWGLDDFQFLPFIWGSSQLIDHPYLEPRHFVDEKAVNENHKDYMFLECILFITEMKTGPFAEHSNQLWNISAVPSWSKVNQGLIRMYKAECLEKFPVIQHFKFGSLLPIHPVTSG
B5: Pre-mRNA-splicing factor SPF27 (Homo sapiens), O75934 (parent)
chain: MAGTGLVAGEVVVDALPYFDQGYEAPGVREAAAALVEEETRRYRPTKNYLSYLTAPDYSAFETDIMRNEFERLAARQPIELLSMKRYELPAPSSGQKNDITAWQECVNNSMAQLEHQAVRIENLELMSQHGCNAWKVYNENLVHMIEHAQKELQKLRKHIQDLNWQRKNMQLTAGSKLREMESNWVSLVSKNYEIERTIVQLENEIYQIKQQHGEANKENIRQDF
partner: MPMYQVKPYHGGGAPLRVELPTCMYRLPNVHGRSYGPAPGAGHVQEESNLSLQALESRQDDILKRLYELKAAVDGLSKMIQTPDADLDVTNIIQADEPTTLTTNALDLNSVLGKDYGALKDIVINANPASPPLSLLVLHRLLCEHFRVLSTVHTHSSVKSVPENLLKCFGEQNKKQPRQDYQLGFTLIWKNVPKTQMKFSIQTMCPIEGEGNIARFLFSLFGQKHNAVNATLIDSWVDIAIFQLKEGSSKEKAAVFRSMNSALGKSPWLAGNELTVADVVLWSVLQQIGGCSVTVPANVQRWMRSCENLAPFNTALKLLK
B6: Notch homolog 2 N-terminal-like protein A (Homo sapiens), Q7Z3S9 (parent)
chain: MCVTYHNGTGYCKCPEGFLGEYCQHRDPCEKNRCQNGGTCVAQAMLGKATCRCASGFTGEDCQYSTSHPCFVSRPCLNGGTCHMLSRDTYECTCQVGFTGKECQWTDACLSHPCANGSTCTTVANQFSCKCLTGFTGQKCETDVNECDIPGHCQHGGTCLNLPGSYQCQCLQGFTGQYCDSLYVPCAPSPCVNGGTCRQTGDFTFECNCLPETVRRGTELWERDREVWNGKEHDEN
partner: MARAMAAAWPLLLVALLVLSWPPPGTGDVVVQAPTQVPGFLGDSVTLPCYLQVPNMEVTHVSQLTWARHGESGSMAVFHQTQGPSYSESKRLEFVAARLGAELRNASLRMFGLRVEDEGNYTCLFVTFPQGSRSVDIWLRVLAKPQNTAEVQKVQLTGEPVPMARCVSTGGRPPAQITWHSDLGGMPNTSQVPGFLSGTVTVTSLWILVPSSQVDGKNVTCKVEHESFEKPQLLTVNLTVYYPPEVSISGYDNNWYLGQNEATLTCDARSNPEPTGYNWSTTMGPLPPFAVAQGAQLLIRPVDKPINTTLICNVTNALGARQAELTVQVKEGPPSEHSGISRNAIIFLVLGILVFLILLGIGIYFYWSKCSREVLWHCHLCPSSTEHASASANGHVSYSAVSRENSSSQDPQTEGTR

Variants of: B1
Settings: with ldoc1_human LDOC1, O95751
ldoc1_human LDOC1, O95751, sequence (O95751 whole entry): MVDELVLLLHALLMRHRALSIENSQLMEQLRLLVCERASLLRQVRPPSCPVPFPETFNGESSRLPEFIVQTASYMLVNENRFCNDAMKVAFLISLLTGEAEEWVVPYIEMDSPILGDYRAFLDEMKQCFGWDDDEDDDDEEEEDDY

effect of a mutation on the interaction | Variant
with no effect | R43G

Variants of: B1
Settings: with tri23_human TRIM23, P36406
tri23_human TRIM23, P36406, sequence (P36406 whole entry): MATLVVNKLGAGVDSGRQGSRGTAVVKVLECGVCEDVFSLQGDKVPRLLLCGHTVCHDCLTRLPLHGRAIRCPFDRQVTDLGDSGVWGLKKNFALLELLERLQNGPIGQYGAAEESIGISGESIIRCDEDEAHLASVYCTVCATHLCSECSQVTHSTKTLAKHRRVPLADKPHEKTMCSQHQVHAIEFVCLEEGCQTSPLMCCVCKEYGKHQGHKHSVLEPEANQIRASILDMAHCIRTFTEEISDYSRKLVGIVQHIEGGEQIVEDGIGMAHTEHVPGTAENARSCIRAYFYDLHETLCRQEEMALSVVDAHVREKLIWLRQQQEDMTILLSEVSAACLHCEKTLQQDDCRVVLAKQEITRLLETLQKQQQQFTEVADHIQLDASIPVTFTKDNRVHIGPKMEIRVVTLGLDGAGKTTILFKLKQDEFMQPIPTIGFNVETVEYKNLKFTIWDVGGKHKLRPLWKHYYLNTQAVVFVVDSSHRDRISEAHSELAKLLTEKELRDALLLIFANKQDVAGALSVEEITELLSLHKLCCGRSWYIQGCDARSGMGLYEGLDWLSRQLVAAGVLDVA

effect of a mutation on the interaction | Variant
with no effect | R43G

Variants of: B1
Settings: with nemo_human IKBKG

effect of a mutation on the interaction | Variant
with no effect | R43G

Variants of: B1
Settings: with mtus2_human MTUS2, Q5JR59
mtus2_human MTUS2, Q5JR59, sequence (Q5JR59 whole entry): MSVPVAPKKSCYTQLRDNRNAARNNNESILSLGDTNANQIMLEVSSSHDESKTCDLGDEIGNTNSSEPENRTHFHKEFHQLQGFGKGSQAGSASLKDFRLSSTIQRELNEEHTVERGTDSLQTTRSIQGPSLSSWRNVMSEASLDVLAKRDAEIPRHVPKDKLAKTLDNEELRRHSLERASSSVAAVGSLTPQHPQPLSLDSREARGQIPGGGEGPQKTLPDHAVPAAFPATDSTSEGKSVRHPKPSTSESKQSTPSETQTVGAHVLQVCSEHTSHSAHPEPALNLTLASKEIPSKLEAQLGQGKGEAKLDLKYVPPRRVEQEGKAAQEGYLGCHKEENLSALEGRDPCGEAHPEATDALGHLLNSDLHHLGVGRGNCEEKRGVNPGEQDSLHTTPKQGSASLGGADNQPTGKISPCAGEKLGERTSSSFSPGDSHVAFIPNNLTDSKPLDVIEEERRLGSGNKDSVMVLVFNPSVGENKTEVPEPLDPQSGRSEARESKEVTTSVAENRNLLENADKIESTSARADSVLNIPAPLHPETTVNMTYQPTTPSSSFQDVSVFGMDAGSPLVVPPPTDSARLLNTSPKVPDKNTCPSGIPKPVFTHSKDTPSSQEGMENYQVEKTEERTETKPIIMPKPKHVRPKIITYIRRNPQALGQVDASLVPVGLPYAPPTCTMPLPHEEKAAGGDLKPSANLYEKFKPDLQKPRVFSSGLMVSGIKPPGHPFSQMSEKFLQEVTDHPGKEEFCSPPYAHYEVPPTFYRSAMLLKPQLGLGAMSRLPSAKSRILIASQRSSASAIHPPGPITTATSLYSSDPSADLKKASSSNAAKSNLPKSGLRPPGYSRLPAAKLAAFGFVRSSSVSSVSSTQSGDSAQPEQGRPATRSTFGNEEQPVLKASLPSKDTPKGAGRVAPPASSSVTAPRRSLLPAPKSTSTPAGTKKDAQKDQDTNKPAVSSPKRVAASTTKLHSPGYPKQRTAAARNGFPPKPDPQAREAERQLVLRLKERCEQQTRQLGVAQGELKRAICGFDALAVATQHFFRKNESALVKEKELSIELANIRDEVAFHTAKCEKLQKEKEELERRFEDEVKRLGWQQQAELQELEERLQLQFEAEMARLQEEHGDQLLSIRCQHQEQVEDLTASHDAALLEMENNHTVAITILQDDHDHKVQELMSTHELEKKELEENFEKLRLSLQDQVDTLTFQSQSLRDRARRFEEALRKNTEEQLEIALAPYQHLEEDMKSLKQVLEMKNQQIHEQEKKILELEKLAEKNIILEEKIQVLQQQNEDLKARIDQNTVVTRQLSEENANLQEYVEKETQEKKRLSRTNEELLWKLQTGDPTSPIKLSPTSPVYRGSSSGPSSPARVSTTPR

effect of a mutation on the interaction | Variant
with no effect | R43G

Variants of: B1
Settings: with pdli7_human PDLIM7, Q9NR12
pdli7_human PDLIM7, Q9NR12, sequence (Q9NR12 whole entry): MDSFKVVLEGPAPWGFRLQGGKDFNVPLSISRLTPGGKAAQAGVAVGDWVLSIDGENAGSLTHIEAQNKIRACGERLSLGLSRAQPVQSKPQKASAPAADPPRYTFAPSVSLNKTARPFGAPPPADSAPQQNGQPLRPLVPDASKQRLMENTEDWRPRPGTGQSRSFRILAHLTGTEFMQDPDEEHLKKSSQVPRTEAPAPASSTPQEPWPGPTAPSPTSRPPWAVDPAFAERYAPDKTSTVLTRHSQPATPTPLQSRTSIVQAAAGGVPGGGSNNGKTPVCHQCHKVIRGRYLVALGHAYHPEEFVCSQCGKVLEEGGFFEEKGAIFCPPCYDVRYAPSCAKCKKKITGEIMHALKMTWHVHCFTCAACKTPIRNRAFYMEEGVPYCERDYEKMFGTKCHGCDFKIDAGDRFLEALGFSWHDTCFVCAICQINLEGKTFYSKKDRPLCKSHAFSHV

effect of a mutation on the interaction | Variant
with no effect | R43G

Variants of: B2
Settings: with ubxn6_human UBXN6, Q9BZV1

effect of a mutation on the interaction | Variant
with no effect | S41F

Variants of: B3
Settings: with maga2_human MAGEA2, P43356
maga2_human MAGEA2, P43356, sequence (P43356 whole entry): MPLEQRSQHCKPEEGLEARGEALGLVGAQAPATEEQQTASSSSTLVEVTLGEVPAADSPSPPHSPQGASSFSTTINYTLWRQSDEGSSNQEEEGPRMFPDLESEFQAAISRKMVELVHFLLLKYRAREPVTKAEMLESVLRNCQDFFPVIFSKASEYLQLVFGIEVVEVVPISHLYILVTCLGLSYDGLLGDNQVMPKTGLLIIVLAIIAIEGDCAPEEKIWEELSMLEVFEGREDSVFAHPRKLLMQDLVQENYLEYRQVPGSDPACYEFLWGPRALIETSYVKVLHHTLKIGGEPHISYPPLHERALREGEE

effect of a mutation on the interaction | Variant
disrupting interaction strength | S378L

Variants of: B3
Settings: with nutm1_human NUTM1, Q86Y26
nutm1_human NUTM1, Q86Y26, sequence (Q86Y26 whole entry): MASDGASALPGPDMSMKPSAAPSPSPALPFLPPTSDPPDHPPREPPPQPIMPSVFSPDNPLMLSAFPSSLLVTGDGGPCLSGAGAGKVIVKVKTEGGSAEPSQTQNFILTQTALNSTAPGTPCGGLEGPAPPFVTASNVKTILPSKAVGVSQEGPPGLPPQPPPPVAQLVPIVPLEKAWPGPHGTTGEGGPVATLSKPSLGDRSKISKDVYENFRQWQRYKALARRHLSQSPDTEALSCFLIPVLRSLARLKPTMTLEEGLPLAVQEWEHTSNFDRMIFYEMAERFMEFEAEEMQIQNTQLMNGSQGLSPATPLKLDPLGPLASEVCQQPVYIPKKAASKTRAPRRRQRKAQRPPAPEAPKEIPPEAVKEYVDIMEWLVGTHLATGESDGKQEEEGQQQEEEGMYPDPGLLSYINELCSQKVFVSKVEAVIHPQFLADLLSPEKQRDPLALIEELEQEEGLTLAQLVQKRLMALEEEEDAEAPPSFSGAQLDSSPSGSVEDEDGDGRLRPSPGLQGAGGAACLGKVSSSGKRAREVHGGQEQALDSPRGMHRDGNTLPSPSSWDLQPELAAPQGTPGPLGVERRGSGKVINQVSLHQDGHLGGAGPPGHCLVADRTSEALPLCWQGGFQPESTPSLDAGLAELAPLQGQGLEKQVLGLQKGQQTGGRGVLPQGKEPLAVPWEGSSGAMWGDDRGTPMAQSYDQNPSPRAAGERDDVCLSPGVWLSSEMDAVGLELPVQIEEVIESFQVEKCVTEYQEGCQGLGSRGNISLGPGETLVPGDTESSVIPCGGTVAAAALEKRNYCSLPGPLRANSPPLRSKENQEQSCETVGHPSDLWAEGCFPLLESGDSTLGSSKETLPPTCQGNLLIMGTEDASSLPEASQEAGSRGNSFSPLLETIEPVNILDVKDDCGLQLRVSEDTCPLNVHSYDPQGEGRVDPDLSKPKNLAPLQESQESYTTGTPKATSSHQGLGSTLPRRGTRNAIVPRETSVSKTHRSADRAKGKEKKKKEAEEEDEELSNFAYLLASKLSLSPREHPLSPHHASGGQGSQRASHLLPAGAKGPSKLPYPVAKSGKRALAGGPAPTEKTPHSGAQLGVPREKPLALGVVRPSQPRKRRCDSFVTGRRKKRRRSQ

effect of a mutation on the interaction | Variant
disrupting interaction strength | S378L

Variants of: B4
Settings: with ptpa_human PTPA

effect of a mutation on the interaction | Variant
with no effect | T899A

Variants of: B5
Settings: with aimp2_human AIMP2, Q13155

effect of a mutation on the interaction | Variant
with no effect | N139S

Variants of: B6
Settings: with pvr_human PVR

effect of a mutation on the interaction | Variant
with no effect | R74Q
with no effect | A115T
